Results taken from patent CN111320688A.

Key:
[1] = molecular target: 黄病毒属中的登革病毒、寨卡病毒、西尼罗河病毒和黄热病毒的E蛋白
[2] = molecular target: 登革病毒1-4型、西尼罗河病毒和黄热病毒 (病毒颗粒表面E蛋白); assay: cell-based or functional assay

B1: TIB12抗体 (antibody, V domains shown)
VH: EVQLLESGGGLVQPGGSLRLSCAASGFTFSSQVMSWVRQAPGRGLEWVSVIHTGGSSTYYADSVKGRFTISRDNSKNTVFLHMNSLRVEDTALYYCAKGSAYGDYVEY
VL: QSVLTQPPSVSGAPGQRVTISCTGSSSNIGAGYDVHWYQQPPGTAPKLLIYGNNNRPSGVPDRFSGSKSGTSASLAITGLQAEDEADYYCQSYDSSLSGGV
B1 gave a Kd [1] of 0.13 to 0.85 nM and an IC50 (中和能力; Vero细胞感染, 流式检测) [2] of 0.04 to 1.31 µg/mL.
